Data: patent US20130171217A1, “ENZYMATIC PERACID GENERATION FOR USE IN SKIN CARE PRODUCTS” (E I DU PONT DE NEMOURS AND COMPANY, priority 2010, published 2013)

Key:
[1] = Two-step treatment of hair tresses, tress tensile strength
Method: Medium brown hair was used in these examples. Stock hair swatches were custom made by International Hair Importers (Glendale, N.Y.). Each swatch had 1500 mg of 50% reversed hair, soft glued in the middle with glue thickness of 1 mm and width of 2 cm.
Test-hair-sample consisted of a hair bundle of approximately 50 mg hair of 4 cm length, held together by a 1 mm thick, 2 mm wide and 5 mm long glue strip. A sheet of BYTAC® (TYPE VF-81, Saint-Gobain Performance Plastics, Wayne, N.J.) was attached to a polystyrene cover-plate, providing a TEFLON®-coated test-surface for mounting and treatment of hair. A strip of double-sided scotch tape was applied on the BYTAC® surface, closer to the top edge of the test plate. The glued side of the test-hair-sample was pressed down on the exposed side of the tape, making sure that the unglued hair strands are completely clear of the tape. The glued parts of the tress and exposed double-sided tape surface were covered with a strip of clear single-sided tape. Although the method is described for a single test-hair-tress, 4 tresses were used for each test condition and were placed side-by-side during the entire treatment.
The test tress was wetted by tap water and the excess water was absorbed with a paper towel. The calculated volume of the enzyme formulation was applied and was worked in gently and evenly into hair strands with gloved fingers for ˜30 seconds and let the formulation soak in for the specified deposition time. The tress was then rinsed with tap water agitated through a peristaltic pump for 20 seconds, to completely remove the surfactant.
Excess water was removed from the wetted tress from the previous step by absorption on a paper towel. The requisite volumes of the substrates (H2O2 and triacetin (TA)) were applied onto the test-tress. The mixture was rubbed into the hair strand firmly and evenly, with gloved finger for ˜1 min. The tress was left semi-covered for the specified treatment time.
Test-hair was washed with a diluted surfactant solution by rubbing the surfactant into hair with enough vigor to foam, for one minute to remove all traced of oils and residues arising during tress preparation or from previous cycles. Hair was rinsed thoroughly with tap water, agitated through a peristaltic pump for 35 seconds, while gently opening tresses with gloved fingers to ascertain that all adherents (surfactant or moisturizer) are dislodged. Excess moisture was absorbed by pressing down the paper towel over the tress. This would mark the end of one cycle. Treatment cycles were repeated starting from the enzyme-deposition step until the desired number of cycles was reached.
Two samples from each experiment were subjected to Tensile assay as described in Example 23, to determine the extent of hair-weakening.
The following experiments followed the general method of treatment disclosed in Example 25. Solutions were made in 5% TWEEN®-20 surfactant in 50 mM citrate buffer at pH 6. […] H2O2 and triacetin, formulations were made according to Example 24, in 20% LUBRIDERM® lotion in 50 mM citrate buffer at pH 6. After application of the reagents, the treatment was allowed to continue for 24 hr, as in daily application. TWEEN®-20 (5% in 50 mM citrate buffer at pH 6) was used for the final surfactant wash. The treatment was repeated for 15 additional cycles, 16 days in all.
The following experiments followed the general method of treatment disclosed in Example 26, except that after application of the reagents, the treatment was allowed to continue for shorter times per cycle rather than 24 hours per cycle.
Enzyme solutions were made in 0.5% or 5% TWEEN®-20 surfactant in 50 mM citrate buffer at pH 6. […] H2O2 and triacetin, formulations were made according to Example 24, in 20% LUBRIDERM® lotion (Johnson & Johnson, New Brunswick, N.J.) in 50 mM citrate buffer at pH 6. After application of 400 μL each of the reagents, the treatment was allowed to continue for 20-40 min. […]

[2] = PAA generation with different perhydrolases and substrates, HPLC Karst assay; type: biochemical
Method: HC1121 is a CE-7 class carbohydrate esterase from Thermotoga maritima (C2775-HC263; SEQ ID NO: 288), and HC1169 is an aryl esterase from M. smegmatis (ArE-HC263; SEQ ID NO: 323). Both enzymes were tested for their perhydrolytic activity with substrates triacetin or propylene glycol diacetate (PGDA, Aldrich 528072) and hydrogen peroxide between pH 5 and pH 7.2. Enzyme free reactions for some reaction conditions were run to determine the non-enzymatic generation of peracetic acid as well. At the end of reaction, the reaction was quenched by acidification 10 or 25 fold with 100 mM H3PO4. The quenched samples were filtered using a NANOSEP® MF centrifugal device (30K Molecular Weight Cutoff (MWCO), Pall Life Sciences, Ann Arbor, Mich., P/N OD030C35) by centrifugation for 6 min at 12,000 rpm. The filtrates were assayed by HPLC Karst assay in duplicates to determine the amount of peracetic acid (PAA) generated at those reaction conditions.

[3] = 1500 μg/mL (E/H 6), deposition 5 min, 0.5 M H2O2, 1 M TA, 2 hr/cycle

B1: C277S: non-targeted C277S variant of the Thermotoga maritima perhydrolase, un-targeted control (protein, listed as Thermotoga maritima)
chain: MAFFDLPLEELKKYRPERYEEKDFDEFWEETLAESEKFPLDPVFERMESHLKTVEAYDVTFSGYRGQRIKGWLLVPKLEEEKLPCVVQYIGYNGGRGFPHDWLFWPSMGYICFVMDTRGQGSGWLKGDTPDYPEGPVDPQYPGFMTRGILDPRTYYYRRVFTDAVRAVEAAASFPQVDQERIVIAGGSQGGGIALAVSALSKKAKALLCDVPFLCHFRRAVQLVDTHPYAEITNFLKTHRDKEEIVFRTLSYFDGVNFAARAKIPALFSVGLMDNISPPSTVFAAYNYYAGPKEIRIYPYNNHEGGGSFQAVEQVKFLKKLFEKG
Work on B1 yielded a TS [1, 3] of 2.84 N/mgH.

B2: C277S-HC263: C277S variant of Thermotoga maritima perhydrolase fused via a flexible linker to hair-binding domain HC263 (protein)
chain: MAFFDLPLEELKKYRPERYEEKDFDEFWEETLAESEKFPLDPVFERMESHLKTVEAYDVTFSGYRGQRIKGWLLVPKLEEEKLPCVVQYIGYNGGRGFPHDWLFWPSMGYICFVMDTRGQGSGWLKGDTPDYPEGPVDPQYPGFMTRGILDPRTYYYRRVFTDAVRAVEAAASFPQVDQERIVIAGGSQGGGIALAVSALSKKAKALLCDVPFLCHFRRAVQLVDTHPYAEITNFLKTHRDKEEIVFRTLSYFDGVNFAARAKIPALFSVGLMDNISPPSTVFAAYNYYAGPKEIRIYPYNNHEGGGSFQAVEQVKFLKKLFEKGGPGSGGAGSPGSAGGPGSPSAQSQLPDKHSGLHERAPQRYGPEPEPEPEPIPEPPKEAPVVIEKPKPKPKPKPKPPAHDHKNQKETHQRHAAGSGGGGSPHHHHHH
In the case of B2, the TS ([1]; 750 μg/mL (E/H 3), 0.25 M H2O2, 0.25 M TA, 20 min/cycle, 16 cycles) is reported as 2.64 N/mgH, the TS ([1]; 750 μg/mL (E/H 3), 0.25 M H2O2, 0.25 M TA, 24 hr/cycle, 16 cycles) is reported as 1.51 N/mgH and the TS ([1]; 750 μg/mL (E/H 3), 0.5 M H2O2, 0.5 M TA, 20 min/cycle, 16 cycles) is reported as 2.09 N/mgH. For the same molecule, the TS ([1]; 750 μg/mL (E/H 3), 0.5 M H2O2, 0.5 M TA, 24 hr/cycle, 16 cycles) was 0.25 N/mgH, the TS ([1]; 750 μg/mL (E/H 3), 0.75 M H2O2, 1 M TA, 40 min/cycle) was 2.49 N/mgH and the “Predicted TS for 24 h/cycle” value ([1]; 750 μg/mL, from 40 min/cycle) was 1.00 ^ N/mgH. For the same molecule, the TS ([1]; 1500 μg/mL (E/H 5), 0.75 M H2O2, 1 M TA, 20 min/cycle) was 2.47 N/mgH, the TS [1, 3] was 1.62 N/mgH and the “Predicted TS for 24 h/cycle” value ([1]; 1500 μg/mL, from 20 min/cycle) was 0.97 ^ N/mgH. It also gave a TS ([1]; 1750 μg/mL (E/H 7), 0.25 M H2O2, 0.25 M TA, 20 min/cycle, 16 cycles) of 2.33 N/mgH, a TS ([1]; 1750 μg/mL (E/H 7), 0.25 M H2O2, 0.25 M TA, 24 hr/cycle, 16 cycles) of 0.77 N/mgH and a TS ([1]; 1750 μg/mL (E/H 7), 0.5 M H2O2, 0.5 M TA, 20 min/cycle, 16 cycles) of 1.90 N/mgH. For the same molecule, the TS ([1]; 1750 μg/mL (E/H 7), 0.5 M H2O2, 0.5 M TA, 24 hr/cycle, 16 cycles) was 0.14 N/mgH, the TS ([1]; 1750 μg/mL (E/H 7), 0.75 M H2O2, 1 M TA, 40 min/cycle) was 1.65 N/mgH and the “Predicted TS for 24 h/cycle” value ([1]; 1750 μg/mL, from 40 min/cycle, (d) predicted disintegration of hair) was −0.13(d) N/mgH. It also gave a TS ([1]; 2500 μg/mL (E/H 10), 0.75 M H2O2, 1 M TA, 20 min/cycle) of 1.73 N/mgH, a TS ([1]; 2500 μg/mL (E/H 10), 0.75 M H2O2, 1 M TA, 40 min/cycle) of 1.67 N/mgH and a TS ([1]; 2500 μg/mL (E/H 10), 20 min/cycle, 1 cycle) of 3.44 N/mgH. The TS ([1]; 2500 μg/mL, 4 cycles) was 3.13 N/mgH, the TS ([1]; 2500 μg/mL, 8 cycles) was 2.34 N/mgH and the TS ([1]; 2500 μg/mL, 12 cycles) was 1.66 N/mgH. For the same molecule, the TS ([1]; 2500 μg/mL, 16 cycles) was 0.95 N/mgH, the “Predicted TS for 24 h/cycle” value ([1]; 2500 μg/mL, from 20 min/cycle, (d) predicted disintegration of hair in 16 × 24 h/cycle) was −0.02(d) N/mgH and the “Predicted TS for 24 h/cycle” value ([1]; 2500 μg/mL, from 40 min/cycle, (d) predicted disintegration of hair) was −0.10(d) N/mgH. The PAA ([2]; 10 μg/mL enzyme, 250 mM triacetin, 100 mM H2O2, 20% LUBRIDERM® in pH 7.2, 100 mM phosphate buffer, 60 min) was 4451 ppm, the PAA ([2]; 50 μg/mL enzyme, 100 mM triacetin, 250 mM H2O2, pH 5, 50 mM citrate buffer, 5 min) was 277 ppm and the PAA ([2]; 50 μg/mL enzyme, 100 mM triacetin, 250 mM H2O2, pH 5.6, 50 mM citrate buffer, 5 min) was 1222 ppm. The PAA ([2]; 50 μg/mL enzyme, 100 mM triacetin, 250 mM H2O2, pH 6, 50 mM citrate buffer, 5 min) was 2350 ppm, the PAA ([2]; 50 μg/mL enzyme, 100 mM triacetin, 250 mM H2O2, pH 6.6, 50 mM citrate-phosphate buffer, 5 min) was 4067 ppm and the PAA ([2]; 50 μg/mL enzyme, 100 mM triacetin, 250 mM H2O2, pH 7, 50 mM pyrophosphate buffer, 5 min) was 4832 ppm.
